PMC4841471 (Nature, 2015)

Target: the molecule itself
Experiment: crystal structure

B1: Two-pore channel TPC1 from Arabidopsis thaliana (AtTPC1) (natural protein, UniProt Q94KI8 1-733, looked up)
chain: MEDPLIGRDSLGGGGTDRVRRSEAITHGTPFQKAAALVDLAEDGIGLPVEILDQSSFGESARYYFIFTRLDLIWSLNYFALLFLNFFEQPLWCEKNPKPSCKDRDYYYLGELPYLTNAESIIYEVITLAILLVHTFFPISYEGSRIFWTSRLNLVKVACVVILFVDVLVDFLYLSPLAFDFLPFRIAPYVRVIIFILSIRELRDTLVLLSGMLGTYLNILALWMLFLLFASWIAFVMFEDTQQGLTVFTSYGATLYQMFILFTTSNNPDVWIPAYKSSRWSSVFFVLYVLIGVYFVTNLILAVVYDSFKEQLAKQVSGMDQMKRRMLEKAFGLIDSDKNGEIDKNQCIKLFEQLTNYRTLPKISKEEFGLIFDELDDTRDFKINKDEFADLCQAIALRFQKEEVPSLFEHFPQIYHSALSQQLRAFVRSPNFGYAISFILIINFIAVVVETTLDIEESSAQKPWQVAEFVFGWIYVLEMALKIYTYGFENYWREGANRFDFLVTWVIVIGETATFITPDENTFFSNGEWIRYLLLARMLRLIRLLMNVQRYRAFIATFITLIPSLMPYLGTIFCVLCIYCSIGVQVFGGLVNAGNKKLFETELAEDDYLLFNFNDYPNGMVTLFNLLVMGNWQVWMESYKDLTGTWWSITYFVSFYVITILLLLNLVVAFVLEAFFTELDLEEEEKCQGQDSQEKRNRRRSAGSKSRSQRVDTLLHHMLGDELSKPECSTSDT
In the case of B1, the “stoichiometry N” value is reported as 2.
